# Data from the nanobody polyreactivity screen of Harvey et al. (2022).
# Experiment: yeast display, Sf9 membrane polyspecificity reagent, FACS + sequencing; frameworks hold sequencing errors
# How it was run: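 Nanobodies from a synthetic yeast display library (Saccharomyces cerevisiae BJ5465), induced 36–48 hours with galactose, were stained 1 hour at 4 °C with 10% biotinylated, detergent-solubilized Sf9 membrane reagent, enriched on streptavidin microbeads, then FACS-sorted. Anti-HA (expression) and streptavidin (reagent binding) fluorescence set low and high (top ~1%) gates. Polyreactivity labels come from the gate of origin. Genes were colony-PCR amplified, MiSeq 2 × 250 sequenced and filtered by CDR length.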
row,Sequence,polyreactivity (PSR sort gate)
1,QVQLVESGGGLVQAGGSLRLSCAASGIIFADYDMGWYRQAPGKERELVAAITGSGGSTYYADSVKGRFTISRDNEKKTVYLQMNSLKPEDTAVYYCAADYAYSYGYHYGYWGQGTQVTVSS,high polyreactivity
2,QVQLVESGGGLVQAGGSLRLSCAASGLIYFYAMGWYRQAPGKERELVAAISSSGGRTYYADSVKGRFTISRDNAKNTVYLQMNSLKPEDTAVYYCAVVSSHYIGPGRNGYDYWGQGTQVTVSS,high polyreactivity
3,QVQLVESVGGLVQAGGSLPLSCAASGLTFPSYAMGWYRQAPGKERELVAAISASGSSTYYADSVKGRFTISRDNAKNTVYLQMNSLKPEDTAVYYCNARKPATVSRYGYWGQGTQVTVSS,high polyreactivity
4,QVQLVESGGGLVQAGGSLRLSCAASGITFYINGMGWYRQAPGKEREFVAAIYDGVNTYYADSVKGRFTISRDNAKNTVYLQMNSLKPEDTAVYYCAADYPPARWEMEYWGQGTQVTVSS,low polyreactivity
5,QVQLVESGGGLVQAGGSLRLSCAASGITFPSYTMGWYRQAPGKERELVATIRNGGSTYYADSVKGRFTISRDNAKNTVYLQMNSLKPEDPAVYYCAAVPLWDYKFFYYLLYDYWGQGTQVTVSS,low polyreactivity
6,QVQLVESGGGLVQAGGSLRLSCAASGSTFDIYAMGWYRQAPGKERELVAAITSGGSTYADSVKGRFTISRDNAKNTVYLQKNSLKPVETAVYYSNADRWFGNYRHLTFLNDYWGQGTQVTVSA,low polyreactivity
7,QVQLVESGGGLVQAGGSLRLSCAASGRTFSYYAMGWYREAPGNERELVAAITTGGRTYYADSVKGRFTISRDNAKNTVYLQMNSLKPEDTAVYYCAADYTVSYPYYEYYYWGQGTQVTVSS,high polyreactivity
8,QVQLVESGGGLVKAGCSLRLSCAASGRTFGTYAMGWYRQAPGKERELVAAISSGGSTYADSVKGRFTISRDNAMNTVYLQMKSLKPEDTAVYYCTTRYPMGGTYTRYPLKGDYWGQGTQVTVSS,high polyreactivity
9,QVQLVESGGGLVQAGGSLRFSCAASGRTFYGYAMGWYRQAPGKERELVAAITRSGGSTYYADSVKGRFTISRDNAKNTVYLQMNSLKPEDTAVYYCAAGGQARHDYWGQGTQVTVSS,low polyreactivity
10,QVQLVESGGGLVQAGGSLRLSCAASGRIFPVNAMGWYRQAPGKEREFVARISRRGGSTYYADSVKGRFTISRDNAKNTVYLQMNSLKPEDTAVYYCAAVSSRYSYDYWGQGTQVTVSS,high polyreactivity
11,QVQLVESGGGLLQAGVSLRLSCASSGRIIDRNAMGWYRQAPGKERELVAAISSSGSTNYADSVKGRFTISRDNAKNTVYLQMNSLKPEDTAVYYCDARWRSVLAAGTRPVSFDYWGQGTQVTVSS,low polyreactivity
12,QVQLVESVVGLVQAGGSLRLSCAASGRTFYRNGMGWYRQAPGKERELVAAISSRGGSTYYADSVKGRFTISRDNAKNTVYLQMNSLKPEDTAVYYCAAPRASGYYWGQGTQVTVSS,high polyreactivity
13,QVQLVESGGGLVQAGGSLRLSCAASGSIYWLYAMGWYRQAPGKERELVAAIDSGDSTKNADSVKGRFTISRDNAKNTVYLQMNSLKPEDTAVYYCNASRRYHVRAPYDYWGQGTHVTVSS,low polyreactivity
14,QVQLVESGGGLVQAGGSLRLSCAASGSIFRYYVMGWYRQAPGKEREFVAAISYRGGSTYYADSVKGRFTISRDNAKNTVYLEMNSLKPEDTAVYFCYAVHYRSFWTPGSNDYWGQGTQVTVSS,high polyreactivity
15,QVQLVESGGGLVQAGGSLRLSCAASGFTIVHYAMGWYRQAPGKERELVAAITWNGGRTYYADSVKGRFTISRDTAKNTVYLQMNSLKPEDTAVYYCAVRYKSWYGFNYWGQGTQVTVSS,high polyreactivity
16,QVQLGESGGGLVQAGGSLRLSCAPSGNPFTIYAMGWYRPAPGKERELVASSTGRGGSTYYADSVKGRFTISRDNEKNTVYLQMNSLKPEDTAVDYCNADYNSYLYRPPTTRDYWGQGTQVTVSS,low polyreactivity
17,QVQLVESGGGLVEAGGSLRLSCAASGTFVYNAMGWYIQAPGKERELVAAISWSGSSTYADSVKGRFTISRDNAKNTVYLQMNSLKPEDTAVYYCAADGYGYNTYQQYYKKSSYWGQGTQVSVSS,low polyreactivity
18,QVQLVESGGGLVQAGGRLRLICAASGFIFGTYAMGWYRQAPGKEREFDAAINWGGGRTYYADSVKGRFTISRDNAKNTVYLQMISLKAEDTAVYYCNIRLIYYRGSYYSLRFDYWGQGTQVTLSS,high polyreactivity
19,QVQLVESGGGLVQAGGSLRLICAASGLIFVYYAMGWYRQAPGKERELVAAIDWSSTRTYYADSVKGRFTISRDNATNTVYLQMNSLKPEDTAVYYCAAESRYLSWFDYWGQGTQVTVSS,high polyreactivity
20,QVQLVESGGGLVQAGGSLRLSCAASGRTFYGYAMGWYRQAPGKERELVASIRQSAGRTYYADSVKGRFTISRDNAKNTVYLQMNSLKPEDTAVYYCAASIFLRSFYQQGNYWGQGTQVTVSS,high polyreactivity

row,Sequence,polyreactivity (PSR sort gate)
1,QVQIVESGGGLVQAGGSLRLSCAASGSTINYNAMGWYRQAPGKERELVAAISTNGGSTYYADSVKGRFTISRDNAKNTVYLQMNSLKPEDTAVYYCNKVRKYSRHYDYWGQGTQVTVSS,high polyreactivity
2,QVQLVESGGGLVQAGGSLRLSCAASGGTFGHYTMGWYRQAPGKERELVAAISGSGGTTYYADSVKGRFTISRDNAKNTVYLQINSLKPEDTAVYFCNKGIPTRSVRSYDYWGQGTKVTVSS,high polyreactivity
3,QVQLVESGGGLVQAGGSLRLSCAASGRIFARYAMGWYRQAPGKERELVAAITSRGGSTYYADSVKGRFTISRDNAKNTVYLQMNSLKPEDTAVYYCNADYYRRPYYYWGQGTQVTVSS,high polyreactivity
4,QVQLVESGGGLVQAGGSLRLSCAASGSTFYTYTMGWYRQAPGKERELVAAISSSGGDTYYADSVKGRFTISRDNAKNTVYLQMNSLKPEDSAVYYCAALGAFPSLEFDYWGQGTQVTVSS,low polyreactivity
5,QVQLVESGGGLVQAGGSLRLSCAPSGRIFNAYAMGWYRQAPGKERELVAAITVSGTRTYYADSVKGRFTISRDNAKNTVYLQMNSLKPEDSAVYYCNAGRGGVLDYGYWGQGTQVTVSS,high polyreactivity
6,QVQLGESGGGLVQAGGSLRLSCAASGFTFPVYAMGWYRQAPGKERELVAAISTSAGSTYYADSVKGRFTISRDNAKNTVYLQMNSLKPEDTAVYYCAARRRAFGSTYNYWGQGTQVTVSS,high polyreactivity
7,QVHLVESGGGLVQAGGSLRLSCAAAGSTVVYNVMGWYRQAPGKERELVAAIRWRGGSTYADSVKGRFTISRDNAKKTVYLQMNSLKPEDTAVYYCAAGIPRYWYAGHYDYWGQGTQVTVSS,low polyreactivity
8,QVQLVESGGGLVQAGGSLRLSCAASGITFTYYAMGWYRQAPGKERELVAAITSGGDTYYADSVKGRFTISRDNAKNTVYLQMNSLKPEDTAVYYCAAEAVVVTKYSYWTYGLYDYWGQGTQVTVSS,high polyreactivity
9,QVQLVESGGGLVQAGGSLRLSCAASGSTLTANAMGWYRQAPGKERELVAAISSAGRTYYADSVKGRFTISRDNAKNTVYLQMNSLKPEDTAVYYCAAPYGQLFTQGTWYEYWGQGTQVTVSS,low polyreactivity
10,QVQLVESGGGLVQAGGSLRLSCAASGRTFRYYTMGWYRQAPGKEREFVAAISSTGGTYYADSVKGRFTISRDNAKNTVYLQMNCLIPEDTAVYYCAATFIQVVVNVQLYDYDYWGQGTQVTVSS,low polyreactivity
11,QVQLVESGGGLVQAGGSLRLSCAASGSIFRSYAMGWYRQAPGKERELVASISRRGGSTYYADSVKGRFTISRDNAKNTVYLQMNSLKLEDTAVYYCAAVRYNSRVSTTPSEMYYWGQGTQVTVSS,low polyreactivity
12,QVQLVESGGGLVQAGGSLRLSCASSGRTFVWNAMGWYRQAPGKERELVAAIDWSGGSTYYADSVKGRFTISRDNAKNTVYLQMNSLKPEDTAVYYCAKEYWYRALWYNYWGQGTQVTVSS,high polyreactivity
13,QVQLVESGGGLVQAGGSLRLSCAASGSTFGVYAMGWYREAPGKERELVAAINKSGTRTYYADSVKGRFTISRDNAKNTVYLQMNSLKPEDTAVYYCAADQGTYGYGGFYYWGQGTQVTVSS,high polyreactivity
14,QVQLVESGGGLVQAGGSLRVSCAASGSIFRFHVMGWYRQAPGKERELVAAITRGDSTNYADSVKGRFTIPRDNAKNTVYLHMNSLKPEATAVYYCATKTPGWGIFDYWGPGTQVTVSS,low polyreactivity
15,QVQHVESGGGLVQAGGSLRLSCAASGFIFRYYTMGLYRQAPGKERELVATISNSGRTYYADSVKGRFTISRDNAKNTVYLQMNSLKPEDTAVYYCNALRASTTALWGGYWGQGTQVTVSS,high polyreactivity
16,QVQLVESGGGLVQAGGSLRLSCAASGRTFWKNTMGWYSQAPGKERELVAVISSGGVSTSYADSVTGRFTISRDKATNTVYLHMNSLKPEDTAVYYCAADGYYIGPYDYWGQGTQVTVSS,low polyreactivity
17,QVQLVESGGGLVQAGGSLRLSCAASGRTFYQYAMGWYRQARGKERELVAAISRRGGSTYYADSVKGRFTISRDNAKNTVYLQMNSLKPEDTAVYYCAARVRGKYDYWGQGTQVTVSS,high polyreactivity
18,QVQLVESGGGLVQAGGSLRLSCAASGLTFSIYAMGWYRQAPGKERELVAAISSTGSTNYADSVKGRFTISRDNAKNTVYLQMNSLKPEDTAVYYCAAELQPSPVGGIIQYGFDYWGQGTQVTVSS,low polyreactivity
19,QVQLVESGGGLVQAGGSLRLSCAASGRTYGYAMGWYTQAPGIERELVARINRTTGSTYYADSVKGRFTISRDNAKNTVYLQMNSLKPQDTAVYYCAKSSYSRALKLYYWGQGSQVTVSS,high polyreactivity
20,QDQLVESGGGLVQAGGSLRLTCAASGRICTYYAMGWYRKATGKERELVASISRSGGNTYYADSVKGRFTISRDNAKNTVYLQMNSLKPEDTAVYYCAAVYSRLDYWGQGTQVTVSS,high polyreactivity
